# Assay results reported in patent US20090221691A1 (UNIVERSITY OF ROCHESTER, published 2009).
# Biological target: T1, biotinylated Gβ1γ2, wild-type (BAP-rat Gβ1 with Gγ2) (rat, UniProt P54311 1-340; P63212 2-68, biotin on the lysine acceptor residue of the BAP)
# T1 construct: immobilized on streptavidin in the assays; also called b-βγ; b-Gβ1γ2; not shown: 20 amino acid biotin acceptor peptide (BAP) fused to the N-terminus
# Assay: flow cytometry competition, blocking Gα-Gβγ interactions
# Experimental: Assays were used to determine peptide effects on Gα-Gβγ interactions included competition and dissociation assays (Ghosh, et al. (2003) supra). […] The bead-associated fluorescence was then recorded in a BD Biosciences FACSCALIBUR™ flow cytometer. Data was corrected for background fluorescence and fit with a sigmoid dose response curve using Graph Pad Prism 4.
binder,measurement,value
SIRKALNILAYPDYD (Free peptide) [SIRK(Gly10Ala)],IC50,~80 µM
